Experimental data taken from patent US7482133B2, “Catalytic domains of β(1,4)-galactosyltransferase I having altered donor and acceptor specificities, domains that promote in vitro protein folding, and methods for their use” (The United States of America as represented by the …, priority 2003, dated 2009).

Legend:
Format in all cases: biochemical
[1] = GalNAc-T specific activity assay; conditions: for UDP-GalNAc → GlcNAc GalNAc-T activity: donor 500 μM, acceptor β-benzyl-GlcNAc 25 mM
Procedure: (§1) For example, the galactose and N-acetylgalactosyltransferase activity of β(1,4)-galactosyltransferase I can be determined using the following assay conditions. […], 10 mM MnCl2, 10 mM Tris-HCl (pH 8.0), 500 μM UDP-Gal or UDP-GalNAc, and 20 ng of β(1,4)-galactosyltransferase I can be incubated at 37° C. for 10 minutes to promote coupling of a donor sugar to an acceptor sugar. While these conditions are provided as an example, it is understood that many other conditions may be used to chemically link a donor to an acceptor using the altered catalytic domains of the invention.
(§2) Gal-T and GalNAc-T Enzyme Assays: The protein concentrations were measured using the Bio-Rad protein assay kit, based on the method of Bradford and further verified on SDS gel. […] The activities were measured using UDP-Gal or UDP-GalNAc as sugar nucleotide donors, and GlcNAc and Glc as the acceptor sugars. For the specific activity measurements, […], 10 mM MnCl2, 10 mM Tris-HCl, pH 8.0, 500 μM UDP-Gal or UDP-GalNAc, 20 ng of Gal-T1, and 0.5 μCl of [^3H]UDP-Gal or [^3H]UDP-GalNAc was used for each Gal-T or GalNAc-T reaction. The incubation was carried out at 37° C. for 10 min. […] The column was washed successfully with 300, 400, and 500 μl of water, and the column flow-through was diluted with Biosafe scintillation fluid; radioactivity was measured with a Beckman counter. A reaction without the acceptor sugar was used as a control. A similar assay was carried out to measure the GalNAc-T activity with Glc and other acceptors in the presence of 50 μM bovine LA (Sigma).

[2] = GalNAc-T activity in absence and presence of LA, acceptor Glc; conditions: in the presence of LA
Procedure: Gal-T and GalNAc-T Enzyme Assays: The protein concentrations were measured using the Bio-Rad protein assay kit, based on the method of Bradford and further verified on SDS gel. […] The activities were measured using UDP-Gal or UDP-GalNAc as sugar nucleotide donors, and GlcNAc and Glc as the acceptor sugars. For the specific activity measurements, a 100-μl incubation mixture containing 50 mM β-benzyl-GlcNAc, 10 mM MnCl2, 10 mM Tris-HCl, pH 8.0, 500 μM UDP-Gal or UDP-GalNAc, 20 ng of Gal-T1, and 0.5 μCl of [^3H]UDP-Gal or [^3H]UDP-GalNAc was used for each Gal-T or GalNAc-T reaction. The incubation was carried out at 37° C. for 10 min. […] The column was washed successfully with 300, 400, and 500 μl of water, and the column flow-through was diluted with Biosafe scintillation fluid; radioactivity was measured with a Beckman counter. A reaction without the acceptor sugar was used as a control. […]

[3] = Gal-T specific activity assay; conditions: donor 500 μM; acceptor β-benzyl-GlcNAc 25 mM (10 mM for C342T); saturating conditions
Procedure: as §1, §2

[4] = GlcNAc-T specific activity assay; conditions: donor 500 μM; acceptor β-benzyl-GlcNAc 25 mM
[5] = Two-substrate kinetic constants, Gal-T reaction; conditions: UDP-galactose → GlcNAc
Text: Studies for Determining the Kinetic Constants: The true Km of the donor (KA) and of the acceptor (KB), the dissociation constant of the donor, Ki(a), and kcat were obtained using two-substrate analyses and the primary plots of five concentrations of donor (UDP-Gal or UDP-GalNAc) and five concentrations of acceptor, and the corresponding secondary plots of the intercepts and slopes. Initial rate conditions were linear with respect to time. A suitable range of donor and acceptor concentrations were chosen, which allowed an accurate Michaelis-Menten plot to be derived. The data were also analyzed for a general two-substrate system using the following equations (Zhang et al., Glycobiology, 9:815-822 (1999)) with the software EnzFitter, a Biosoft nonlinear curve-fitting program for Windows.
[formula] Here v is the initial velocity and the rate equation for sequential symmetrical initial velocity pattern associated with Equation 1, an ordered or random equilibrium mechanism in which substrate A dissociates well from the E-S complex with a dissociation constant of Ki(a). Equation 2 is for asymmetric initial velocity pattern for a double displacement or “ping-pong” mechanism. The kinetic parameters KA, KB, Ki(a), and Vmax, were obtained from the fitted curves using the above rate equations. The graphical method and EnzFitter program gave very similar kinetic parameters. In the N-acetylgalactosamine transferase (GalNAc-T) assay, the maximum substrate concentrations used for UDP-GalNAc and GlcNAc were 1 and 200 mM, respectively. However, in the galactose transferase (Gal-T) assay, because of the limited solubility of GlcNAc in water, the concentration of GlcNAc was limited to no more than […] (which is 2-fold higher than its Km value), whereas up to 300 μM UDP-Gal were used.

B1: Y289N: bovine Gal-T1 catalytic domain, Tyr-289 exchanged with Asn (protein)
chain: SLTACPEESPLLVGPMLIEFNIPVDLKLIEQQNPKVKLGGRYTPMDCISPHKVAIIILFRNRQEHLKYWLYYLHPMVQRQQLDYGIYVINQAGESMFNRAKLLNVGFKEALKDYDYNCFVFSDVDLIPMNDHNTYRCFSQPRHISVAMDKFGFSLPYVQNFGGVSALSKQQFLSINGFPNNYWGWGGEDDDIYNRLAFRGMSVSRPNAVIGKTRMIRHSRDKKNEPNPQRFDRIAHTKETMLSDGLNSLTYMVLEVQRYPLYTKITVDIGTPS
For B1, the “galactose transferase versus N-acetylgalactosyltransferase activity” value ([1]; comparison in words (Table III, FIG. 1)) was “equally strong galactose transferase and N-acetylgalactosyltransferase activities” and the “acceptor preference of GalNAc transfer” value [2] was “transfer GalNAc preferably to Glc rather than to GlcNAc”.

B2: Y289I_C342T: bovine Gal-T1 catalytic domain (residues 130-402), Tyr-289 exchanged with Ile, with Cys-342 to Thr mutation (protein)
chain: SLTACPEESPLLVGPMLIEFNIPVDLKLIEQQNPKVKLGGRYTPMDCISPHKVAIIILFRNRQEHLKYWLYYLHPMVQRQQLDYGIYVINQAGESMFNRAKLLNVGFKEALKDYDYNCFVFSDVDLIPMNDHNTYRCFSQPRHISVAMDKFGFSLPYVQIFGGVSALSKQQFLSINGFPNNYWGWGGEDDDIYNRLAFRGMSVSRPNAVIGKTRMIRHSRDKKNEPNPQRFDRIAHTKETMLSDGLNSLTYMVLEVQRYPLYTKITVDIGTPS
With B2 the “UDP-galactose → GlcNAc Gal-T activity” value [3] was 8.8 pmol/min/ng, the “affinity to UDP-GalNAc” value ([1]; FIG. 1, in words) was “slightly weaker affinity” and the “specific N-acetylgalactosyltransferase activity relative to Y289L” value ([1]; at the substrate concentration used) was “half that of Y289L”. For the same molecule, the “UDP-GalNAc → GlcNAc GalNAc-T activity” value [1] was 14.7 pmol/min/ng, the “UDP-GlcNAc → GlcNAc GlcNAc-T activity” value [4] was 6.2 pmol/min/ng and the “acceptor preference of GalNAc transfer” value [2] was “transfer GalNAc preferably to Glc rather than to GlcNAc”.

B3: C342T: catalytic domain of bovine Gal-T1 (residues 130-402) with the C342T mutation (protein, UniProt P08037 130-402, looked up, variant C342T)
chain: SLTACPEESPLLVGPMLIEFNIPVDLKLVEQQNPKVKLGGRYTPMDCISPHKVAIIIPFRNRQEHLKYWLYYLHPILQRQQLDYGIYVINQAGESMFNRAKLLNVGFKEALKDYDYNCFVFSDVDLIPMNDHNTYRCFSQPRHISVAMDKFGFSLPYVQYFGGVSALSKQQFLSINGFPNNYWGWGGEDDDIYNRLAFRGMSVSRPNAVIGKTRMIRHSRDKKNEPNPQRFDRIAHTKETMLSDGLNSLTYMVLEVQRYPLYTKITVDIGTPS
modifications: catalytic domain
notes: catalytic domain of bovine Gal-T1 (residues 130-402) with the C342T mutation
In the case of B3, the “UDP-galactose → GlcNAc Gal-T activity” value [3] is reported as 11.8 pmol/min/ng, the “UDP-GalNAc → GlcNAc GalNAc-T activity” value [1] is reported as 0.1 pmol/min/ng and the “UDP-GlcNAc → GlcNAc GlcNAc-T activity” value [4] is reported as 0 pmol/min/ng. The “KA (true Km of the donor), Gal-T” value [5] was 98 (6) μM, the “KB (true Km of the acceptor), Gal-T” value [5] was 11 (1) MM and the Kcat., Gal-T ([5]; unit assumed) was 14 s⁻¹.
